Molecular target: Sho1 SH3 (SHO1_YEAST), P40073
Test: SPOT array

Sho1 SH3 (SHO1_YEAST), P40073, sequence (P40073 295-366): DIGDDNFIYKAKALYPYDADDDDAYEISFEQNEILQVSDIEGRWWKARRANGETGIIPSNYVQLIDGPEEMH

normalised SPOT signal, Boehringer light units (BLU); mean over the file's lines of this peptide	Binder
27.7	FDFPLSPVKHENPT [196-209 Product of gene unknown]
102	ELPPIKPPRPTSTT [619-632 " contains 3 SH3 domains, interacts with Bee1p"]
166	FPDPNNPSKVQIRM [375-388 transcription factor]
60.3	GSSPVSPDKRPSWK [66-79 vacuolar alpha mannosidase]
140	GSNPDLPNKSNLKF [307-320 " Twinfilin A, an actin monomer sequestering protein"]
145	GAKPKIPSKLYQSV [124-137 Unknown]
257	FSKPQEPVKAEEAE [393-406 Actin binding protein]
5100	EIPPPLPPKIMVHS [528-541 Ubiquitin-specific protease]
89.9	GPPPAMPARPTATT [192-205 " contains 3 SH3 domains, interacts with Bee1p"]
157	ERDPNAPKKPLTVF [100-113 35 kDa protein belonging to the high mobility group (HMG) fanily of proteins]
213	GNIPVFPAKFGIQF [476-489 Mitochondrial outer membrane protein involved in mitochondrial morphology and inheritance]
127	ELDPISPLKVPLTA [276-289 involved in cell wall biogenesis]
161	ELPPTHPIRLGLAL [164-177 Homolog of mammalian 14-3-3 proteins;member of conserved eukaryotic 14-3-3 gene family]
69.7	ENAPANPSKALKVK [549-562 Arf-binding protein]
105	EYHPIKPLRSSSST [234-247 Hypothetical ORF]
162	FFHPAIPLKNAAPF [112-125 Hypothetical ORF]
189	GRHPDMPTRVKNAY [219-232 component of cytoplasmic chaperonin complex]
56.7	EYFPISPEKKEEME [591-604 Hypothetical ORF]
139	GLEPNTPLKSIKVD [340-353 isopropylmalate isomerase]
327	IAAPKKPRKPRQTK [241-254 RNA polymerase II mediator subunit]

normalised SPOT signal, Boehringer light units (BLU); mean over the file's lines of this peptide	Binder
103	HNSPVAPNRYAANL [84-97 chitin synthase 2]
240	HSTPVTPRRLFTSQ [171-184 protein required for Clb2 and Ase1 degradation]
201	HSSPIAPSKAKRQR [64-77 Transcription factor (fork head domain)]
120	GGQPPVPVRMQPQP [379-392 Hypothetical ORF]
112	IAHPVRPHRAITMT [631-644 dual specificity protein phosphatase]
164	EMIPSSPQRKSVSN [51-64 Product of gene unknown]
158	GYDPTDPNRPKVTK [1426-1439 Hypothetical ORF]
121	FPYPFKPSRVGVKY [440-453 Hypothetical ORF]
164	FSHPLSPLKSNFID [74-87 Hypothetical ORF]
174	IAYPGDPLRFHSHL [207-220 34kDa subunit of the tetrameric tRNA splicing endonuclease]
178	ENVPLYPSRRNIWE [81-94 Hypothetical ORF]
59.4	IAYPFYPFKKLGRQ [32-45 Hypothetical ORF]
284	FVIPGVPSKSYSLF [310-323 H+-biotin symporter]
102	ELEPQHPLRHKSSL [53-66 "glucose repression protein, a component of the Snf1 complex"]
884	FQPPPKPFRRSQSS [657-670 Hypothetical ORF]
483	FLPPPKPFRHTETK [587-600 Hypothetical ORF]
183	EYSPLVPSKMSADK [356-369 mitochondrial protein; (putative) chaperone]
773	FRFPRLPQKKKEEL [106-119 " mRNA guanylyltransferase (mRNA capping enzyme), alpha subunit"]
202	HPDPADPAKELELN [377-390 lysyl-tRNA synthetase]
112	GGDPTKPVRTWNDL [193-206 subunit of a cytoplasmic histone acetyltransferase]

normalised SPOT signal, Boehringer light units (BLU); mean over the file's lines of this peptide	Binder
182	EVSPVEPKRTENER [687-700 putative serine/threonine kinase]
275	FHDPILPRRTSTFL
48.8	IFDPQDPYRRAQQF [496-509 Hypothetical ORF]
156	GITPVGPGKFSRSA [256-269 mitochondrial ribosomal protein L2 of the large subunit]
4360	FTAPPVPTKKKSKN [316-329 " Yeast homologue of mammalian GRASP proteins, also localised to the Golgi apparatus."]
139	HGVPVVPSREVTIN [440-453 protoporphyrinogen oxidase]
164	ENKPFKPPRRVGSN [41-54 Putative helicase similar to RAD54]
441	FISPHLPMKGRLVL [471-484 Hypothetical ORF]
129	FWNPENPYKFVHPR [171-184 " 1,4-glucan-6-(1,4-glucano)-transferase"]
29.2	GAPPTTPSRPRTTT [91-104 phosphatidylserine decarboxylase located in vacuole or Golgi]
32.8	ETVPTEPTRYNYQN [1359-1372 negative regulator of early meiotic gene expression]
83.8	ERDPNMPKRPTNAY [88-101 HMG1-box containing protein]
45.8	ENFPIVPLKSVAQD [638-651 transcription factor]
45.5	GNTPDAPKRGFLGY [44-57 Hexose transporter]
119	GYDPTDPSRPRINE [1469-1482 Hypothetical ORF]
39.3	GRIPQLPNRDEMTA [1268-1281 protein kinase]
109	GVYPSRPEKTYDYS
141	IEVPQSPTKNRVKV [61-74 (putative) involved in DNA replication]
214	FPYPGNPLKIINYE [862-875 Pho85 kinase inhibitor]

From publication PMC314469, “Protein Interaction Networks by Proteome Peptide Scanning” (PLoS Biology, 2004)
